Changes are numbered by the printed parent chain.
T1: human GIP receptor (human) (UniProt P48546)
T1 sequence (looked up): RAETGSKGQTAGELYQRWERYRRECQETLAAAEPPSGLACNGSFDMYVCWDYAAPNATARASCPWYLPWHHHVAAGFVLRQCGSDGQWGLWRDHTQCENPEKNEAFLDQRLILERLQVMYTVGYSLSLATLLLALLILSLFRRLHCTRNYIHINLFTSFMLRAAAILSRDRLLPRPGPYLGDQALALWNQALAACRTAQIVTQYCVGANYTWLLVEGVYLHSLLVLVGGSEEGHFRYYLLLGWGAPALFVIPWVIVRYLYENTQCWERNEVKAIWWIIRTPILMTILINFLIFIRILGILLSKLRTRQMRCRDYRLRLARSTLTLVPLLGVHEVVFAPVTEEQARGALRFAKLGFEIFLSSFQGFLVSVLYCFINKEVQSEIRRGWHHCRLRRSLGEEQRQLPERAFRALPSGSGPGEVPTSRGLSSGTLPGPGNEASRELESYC

B1: Example 1114 (peptide)
chain: YXQGTFTSDXSQXLDXKAQXAFIEXLIAXGPSSGAPPPSGSEE
modifications: not fully specified; Aib, 4Pal, αMeL, Orn, Me4Pal, αMeY; γGlu-C18 diacid Lys; C-term amide; synthetic construct; SITE 2: note = 2-Aminoisobutyric Acid; SITE 10: note = 3-(4-Pyridyl)-L-alanine; SITE 13: note = alpha-methyl-leucine; SITE 16: note = L-ornithine; SITE 17: note = Lysine is chemically modified through conjugation of the epsilon-amino group of the Lysine side chain with D-Glutami
B2: Example 1112 (peptide)
chain: B1 chain with A28E
modifications: non-natural residues; acylated Lys; C-terminal amide; synthetic construct; SITE 2: note = 2-Aminoisobutyric Acid; SITE 10: note = 3-(4-Pyridyl)-L-alanine; SITE 13: note = alpha-methyl-leucine; SITE 16: note = L-ornithine; SITE 17: note = Lysine is chemically modified through conjugation of the epsilon-amino group of the Lysine side chain with D-Glutami
B3: Example 1134 (peptide)
chain: YXQGTFTSDXXQXLDXKAQXQFIQXLIEXGPSSGAPPPSGGGE
modifications: not fully specified; N-methyl-Tyr, non-natural residues, acylated Lys (γGlu-C18 diacid), C-terminal amide; synthetic construct; SITE 1: note = N-methyl-tyrosine; SITE 2: note = 2-Aminoisobutyric Acid; SITE 10: note = 3-(4-Pyridyl)-L-alanine; SITE 11: note = alpha-methyl-L-serine; SITE 13: note = alpha-methyl-leucine; SITE 16: note = L-ornithine; SITE 17: note = Lysine is chemically modified …
B4: Example 1136 (peptide)
chain: B3 chain with Q12I
modifications: not fully specified; non-natural residues (Aib, 4Pal, αMeS, Orn, Me4Pal); lipidated Lys; C-amide; synthetic construct; SITE 2: note = 2-Aminoisobutyric Acid; SITE 10: note = 3-(4-Pyridyl)-L-alanine; SITE 11: note = alpha-methyl-L-serine; SITE 13: note = alpha-methyl-leucine; SITE 16: note = L-ornithine; SITE 17: note = Lysine is chemically modified through conjugation of the epsilon-amino group
B5: Example 1135 (peptide)
chain: B3 chain with Q12I
modifications: not fully specified; N-methyl Tyr, non-natural residues, acylation, C-terminal amide; synthetic construct; SITE 1: note = N-methyl-tyrosine; SITE 2: note = 2-Aminoisobutyric Acid; SITE 10: note = 3-(4-Pyridyl)-L-alanine; SITE 11: note = alpha-methyl-L-serine; SITE 13: note = alpha-methyl-leucine; SITE 16: note = L-ornithine; SITE 17: note = Lysine is chemically modified through conju
B6: Example 1139 (peptide)
chain: B3 chain with I27L
modifications: not fully specified; non-natural residues (Aib, 4Pal, αMeS, Iva, αMeY); lipidated K; amide; synthetic construct; SITE 2: note = 2-Aminoisobutyric Acid; SITE 10: note = 3-(4-Pyridyl)-L-alanine; SITE 11: note = alpha-methyl-L-serine; SITE 13: note = alpha-methyl-leucine; SITE 16: note = L-ornithine; SITE 17: note = Lysine is chemically modified through conjugation of the epsilon-amino group
B7: Example 1138 (peptide)
chain: B3 chain with I27L
modifications: not fully specified; non-natural residues, acylated Lys, C-terminal amide; synthetic construct; SITE 2: note = 2-Aminoisobutyric Acid; SITE 10: note = 3-(4-Pyridyl)-L-alanine; SITE 11: note = alpha-methyl-L-serine; SITE 13: note = alpha-methyl-leucine; SITE 16: note = L-ornithine; SITE 17: note = Lysine is chemically modified through conjugation of the epsilon-amino group
B8: Example 1116 (peptide)
chain: YXQGTFTSDXSQXLDKKAQXAFIEXLIEXGPSSGAPPPSGTE
modifications: acylated Lys AEEA-γGlu-C18 diacid; non-natural residues; C-terminal amide; synthetic construct; SITE 2: note = 2-Aminoisobutyric Acid; SITE 10: note = 3-(4-Pyridyl)-L-alanine; SITE 13: note = alpha-methyl-leucine; SITE 17: note = Lysine is chemically modified through conjugation of the epsilon-amino group of the Lysine side chain with (2-[2-(2-Amino-ethoxy)-ethoxy]-acetyl)
B9: Example 1118 (peptide)
chain: B8 chain
modifications: Lys acylated with (γGlu)2-C18 diacid; non-natural residues; C-amide; synthetic construct; SITE 2: note = 2-Aminoisobutyric Acid; SITE 10: note = 3-(4-Pyridyl)-L-alanine; SITE 13: note = alpha-methyl-leucine; SITE 17: note = Lysine is chemically modified through conjugation of the epsilon-amino group of the Lysine side chain with (gamma-Glu)2-CO-(CH2)16-CO2H; SITE 20:
B10: Example 1126 (peptide)
chain: B8 chain with X25Y
modifications: non-natural residues; (γGlu)2-C18 diacid on Lys; C-terminal amide; synthetic construct; SITE 2: note = 2-Aminoisobutyric Acid; SITE 10: note = 3-(4-Pyridyl)-L-alanine; SITE 13: note = alpha-methyl-leucine; SITE 17: note = Lysine is chemically modified through conjugation of the epsilon-amino group of the Lysine side chain with (gamma-Glu)2-CO-(CH2)16-CO2H; SITE 20:
B11: Example 1121 (peptide)
chain: B8 chain with T41E
modifications: Aib, 4Pal, αMeL, Me4Pal, acylated K, C-terminal amide; synthetic construct; SITE 2: note = 2-Aminoisobutyric Acid; SITE 10: note = 3-(4-Pyridyl)-L-alanine; SITE 13: note = alpha-methyl-leucine; SITE 17: note = Lysine is chemically modified through conjugation of the epsilon-amino group of the Lysine side chain with (gamma-Glu)2-CO-(CH2)16-CO2H; SITE 20:
B12: Example 1142 (peptide)
chain: YXQGTXTSDXXIXLDXKAQXEFIEXLIEGGPSSGAPPPTGE
modifications: Aib, αMeF(2F), 4Pal, αMeS, αMeL, Orn, Me4Pal, αMeY, acyl, amide; synthetic construct; SITE 2: note = 2-Aminoisobutyric Acid; SITE 6: note = alpha-methyl-2-fluoro-L-phenylalanine; SITE 10: note = 3-(4-Pyridyl)-L-alanine; SITE 11: note = alpha-methyl-L-serine; SITE 13: note = alpha-methyl-leucine; SITE 16: note = L-ornithine; SITE 17: note = Lysine is chemically mo
B13: Example 1146 (peptide)
chain: B12 chain with T39E, G40S
modifications: non-natural residues, acylated Lys, C-terminal amide; synthetic construct; SITE 2: note = 2-Aminoisobutyric Acid; SITE 6: note = alpha-methyl-2-fluoro-L-phenylalanine; SITE 10: note = 3-(4-Pyridyl)-L-alanine; SITE 11: note = alpha-methyl-L-serine; SITE 13: note = alpha-methyl-leucine; SITE 16: note = L-ornithine; SITE 17: note = Lysine is chemically mo
B14: Example 1148 (peptide)
chain: B12 chain with T39E
modifications: non-natural residues, AEEA-γGlu-diacid acylated Lys, C-terminal amide; synthetic construct; SITE 2: note = 2-Aminoisobutyric Acid; SITE 6: note = alpha-methyl-2-fluoro-L-phenylalanine; SITE 10: note = 3-(4-Pyridyl)-L-alanine; SITE 11: note = alpha-methyl-L-serine; SITE 13: note = alpha-methyl-leucine; SITE 16: note = L-ornithine; SITE 17: note = Lysine is chemically mo
B15: Example 1144 (peptide)
chain: B12 chain with T39G
modifications: non-natural residues; K acylated AEEA-γGlu-C18 diacid; C-amide; synthetic construct; SITE 2: note = 2-Aminoisobutyric Acid; SITE 6: note = alpha-methyl-2-fluoro-L-phenylalanine; SITE 10: note = 3-(4-Pyridyl)-L-alanine; SITE 11: note = alpha-methyl-L-serine; SITE 13: note = alpha-methyl-leucine; SITE 16: note = L-ornithine; SITE 17: note = Lysine is chemically mo

Experiments:
Assay in all cases: cell-based or functional assay
[1] = target: T1, human GIP receptor (human)
[2] = target: human glucagon receptor (human) (UniProt P47871)
Sequence of human glucagon receptor (human) (P47871 26-477): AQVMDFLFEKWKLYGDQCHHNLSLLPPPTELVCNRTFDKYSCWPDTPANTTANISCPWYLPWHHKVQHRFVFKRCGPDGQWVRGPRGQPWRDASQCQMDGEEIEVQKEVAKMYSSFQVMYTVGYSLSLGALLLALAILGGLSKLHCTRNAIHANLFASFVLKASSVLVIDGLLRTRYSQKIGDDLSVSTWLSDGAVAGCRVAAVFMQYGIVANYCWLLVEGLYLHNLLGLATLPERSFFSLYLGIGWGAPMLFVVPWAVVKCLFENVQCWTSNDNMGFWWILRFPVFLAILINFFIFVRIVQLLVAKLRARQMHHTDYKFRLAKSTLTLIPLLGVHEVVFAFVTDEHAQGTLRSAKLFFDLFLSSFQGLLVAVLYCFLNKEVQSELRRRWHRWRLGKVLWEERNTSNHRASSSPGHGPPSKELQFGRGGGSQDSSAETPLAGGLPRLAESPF

hGLP-1R = hGLP-1R (Homo sapiens, UniProt P43220)
Sequence of hGLP-1R (P43220 24-463): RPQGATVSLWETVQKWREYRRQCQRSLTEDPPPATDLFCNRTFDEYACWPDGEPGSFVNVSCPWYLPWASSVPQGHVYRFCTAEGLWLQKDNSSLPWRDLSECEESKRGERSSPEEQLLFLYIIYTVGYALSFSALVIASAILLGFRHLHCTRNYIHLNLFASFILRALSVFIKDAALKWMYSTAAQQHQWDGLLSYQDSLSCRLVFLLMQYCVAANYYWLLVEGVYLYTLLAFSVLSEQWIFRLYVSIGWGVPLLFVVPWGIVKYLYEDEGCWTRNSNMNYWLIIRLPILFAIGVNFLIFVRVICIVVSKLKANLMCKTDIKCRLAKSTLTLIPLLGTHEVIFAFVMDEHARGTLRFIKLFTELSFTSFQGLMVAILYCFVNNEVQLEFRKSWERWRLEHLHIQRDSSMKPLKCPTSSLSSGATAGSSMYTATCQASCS

Binder | Relative cAMP EC50 [1] | Relative cAMP EC50 [2] | Relative cAMP EC50 (hGLP-1R)
B1 | 47.8 pM | 11500 pM | 840 pM
B2 | 254 pM | 10700 pM | 957 pM
B3 | 39.1 pM | 2570 pM | 957 pM
B4 | 13.1 pM | 1260 pM | 453 pM
B5 | 12.6 pM | 1760 pM | 746 pM
B6 | 43.1 pM | 5290 pM | 1850 pM
B7 | 49.1 pM | 1010 pM | 1930 pM
B8 | 134 pM | 8200 pM | 4630 pM
B9 | 128 pM | 6520 pM | 5420 pM
B10 | 174 pM | 3920 pM | 4560 pM
B11 | 115 pM | 8830 pM | 5230 pM
B12 | 7.06 pM | 1340 pM | 329 pM
B13 | 6.28 pM | 1220 pM | 281 pM
B14 | 8.01 pM | 1600 pM | 299 pM
B15 | 6.49 pM | 1320 pM | 282 pM

— US20240270821A1, “GIP/GLP1/GCG TRI-RECEPTOR AGONISTS AND USES THEREOF” (priority 2023, published 2024)
